{"source": "IntAct's records for PubMed 24553140", "parents": {"B1": {"name": "Autophagy-related protein 16-1 (Mus musculus), Q8C0J2 (parent)", "chain": "MSSGLRAADFPRWKRHIAEELRRRDRLQRQAFEEIILQYTKLLEKSDLHSVLTQKLQAEKHDMPNRHEISPGHDGAWNDSQLQEMAQLRIKHQEELTELHKKRGELAQLVIDLNNQMQQKDKEIQMNEAKISEYLQTISDLETNCLDLRTKLQDLEVANQTLKDEYDALQITFTALEEKLRKTTEENQELVTRWMAEKAQEANRLNAENEKDSRRRQARLQKELAEAAKEPLPVEQDDDIEVIVDETSDHTEETSPVRAVSRAATKRLSQPAGGLLDSITNIFGRRSVSSIPVPQDIMDTHPASGKDVRVPTTASYVFDAHDGEVNAVQFSPGSRLLATGGMDRRVKLWEAFGDKCEFKGSLSGSNAGITSIEFDSAGAYLLAASNDFASRIWTVDDYRLRHTLTGHSGKVLSAKFLLDNARIVSGSHDRTLKLWDLRSKVCIKTVFAGSSCNDIVCTEQCVMSGHFDKKIRFWDIRSESVVREMELLGKITALDLNPERTELLSCSRDDLLKVIDLRTNAVKQTFSAPGFKCGSDWTRVVFSPDGSYVAAGSAEGSLYVWSVLTGKVEKVLSKQHSSSINAVAWAPSGLHVVSVDKGSRAVLWAQP"}}, "data": [{"variants_of": "B1", "conditions": "with mlp3a_mouse Map1lc3a", "values": [{"variant": "T300A", "effect of a mutation on the interaction": "decreasing interaction"}]}]}
